The record followed here is patent publication US6492131B1, “Class I-type lysyl-TRNA synthetase” (Yale University, priority 1997, dated 2002).

Substrate in the data set: NCCCC[C@H](N)C(=O)O
Kind of data set: Kinetic characterization of LysRS: aminoacylation of M. maripaludis total tRNA with lysine. Format: biochemical, Methanococcus maripaludis. The conditions noted are these: other: purified native LysRS 5 nM, 37° C., pH 7.2. The text has this:
To investigate the formation of Lys-tRNA in cell-free extracts prepared from M. maripaludis, (^14C) lysine and homologous total TRNA were used as substrates (6). […] This was confirmed by the observation that (^14C)Lys-tRNA synthesis was inhibited by only one of the 20 canonical amino acids, lysine (FIG. 1). This is consistent with the presence of LysRS, since Lys-tRNA synthesis via a mischarged tRNA would result in a non-labeled amino acid other than lysine being able to inhibit lysylation of tRNA. On the basis of these observations LysRS from M. maripaludis was purified. By standard chromatographic procedures (8), a single 62-kD protein was isolated, which was purified to homogeneity as judged by both silver staining after denaturing polyacrylamide gel electrophoresis (SDS-PAGE) and the appearance of a single symmetrical peak during size exclusion chromatography. […] The enzyme could acylate unfractionated tRNA with lysine to the same degree as the M. maripaludis crude extract (FIG. 1), confirming that the purified protein is LysRS. […] These modified nucleotides have previously been detected at position 34 in all known tRNA^Glu and tRNA^Lys isoacceptors (13).
6. […]
9. […] Sampling and quantification were as described (K. -W. Hong et al., EMBO J. 15, 1983 (1996)).

B1: M. maripaludis LysRS (Methanococcus maripaludis) (protein)
chain: MHWADATSEKIMKKRNAEEYVVSSGITPSGHIHIGNARETLTADAVYKGMLKKGAEAKLIFIADDYDPLRKLYPFLPKEFEKYIGMPLSEIPCPQGCCKSYADHFLMPFLNSLEDLGVEITTHRANECYKAGMYNEAIITALENRLKIKELLDSYRKEPLADNWYPLNVVCEKCGKMHETKVTSYNSEDKTITYVCKCGFENTVQPFNGIGKLPWRVDWPARWNIFGVTAEPMGKDHAASGGSYDTGIKIARQIFNYQAPEKMVYEWIQLKIGDKAMPMSSSSGVVFAVKDWTEICHPEVLRFLILKGKPTKHIDFDLKAISNLVDDYDELERKYFELIEKQKTEELNDNENEKISLYELVTPKIPERLPLQVAYRFCSIIAQIALDKETQKIDMERVFDILGRNGYNPAEFSEYDKSRLEKRLYMSKKWASDYGENLEINDFEQAKEQYETLSEEQKAWLKAFSKEVENIEIDANTIHELMYETATKLNLAPKEAFVASYKILLGKNYGPKLGSFLASLKKEFVIGRFNLTE
With B1, the Km (commonly the concentration of substrate that gives half-maximal velocity) is 2.2 µM and the kcat (as a rule, the maximal rate divided by the concentration of active sites) was 1.6 s⁻¹.
